Measurements as given in patent US20180273621A1 (AstraZeneca / MedImmune, published 2018).
Values belong to the binder of their own block, whether it stands above or below them.

Experiments:
human CD19 antigen [1] = target: T1, human CD19 antigen (human, UniProt P15391 20-556); experiment: cell based ELISA on 300B4 cells expressing recombinant human CD19, OD450
T1 construct: whole, on cells; also called hCD19; recombinant human CD19
T1 sequence (looked up): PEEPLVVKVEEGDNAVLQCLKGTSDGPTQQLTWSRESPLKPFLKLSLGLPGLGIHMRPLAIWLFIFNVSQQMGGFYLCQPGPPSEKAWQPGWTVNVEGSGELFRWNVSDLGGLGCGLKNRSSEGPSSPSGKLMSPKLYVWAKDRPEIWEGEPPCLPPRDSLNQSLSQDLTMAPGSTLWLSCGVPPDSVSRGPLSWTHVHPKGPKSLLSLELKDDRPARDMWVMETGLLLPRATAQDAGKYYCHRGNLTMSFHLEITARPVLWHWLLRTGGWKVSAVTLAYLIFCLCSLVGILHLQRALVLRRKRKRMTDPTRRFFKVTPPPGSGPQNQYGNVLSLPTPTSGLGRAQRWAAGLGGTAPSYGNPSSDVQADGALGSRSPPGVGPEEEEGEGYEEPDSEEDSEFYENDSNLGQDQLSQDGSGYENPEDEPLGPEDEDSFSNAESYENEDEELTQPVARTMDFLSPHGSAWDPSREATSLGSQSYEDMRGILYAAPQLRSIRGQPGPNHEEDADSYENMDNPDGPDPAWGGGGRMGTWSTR
Method: (§1) 300B4 cells were cultured according to standard protocols in RPMI 1640 medium containing L-glutamine and supplemented with 10% Fetal Calf Serum, β-mercaptoethanol in the presence of 1 mg/ml G418. A standard ELISA protocol can be used for the cell based CD19 binding assay. […] Binding reactions are performed in triplicates for each antibody concentration tested. Negative control wells using an isotype matched antibody of irrelevant specificity should be included in the assay. Following incubation with the antibody 300B4 cells are washed three times with 200 micro liter of ELISA buffer. The amount of chimeric, humanized, or human anti-CD19 antibodies bound to 300B4 cells can be detected using a goat anti-human kappa antibody conjugated with horseradish peroxidase according to standard protocols.

human CD19 antigen [2] = target: T1, human CD19 antigen; experiment: as above; remark: listed apart in the source
Method: as §1
An isotype matched human antibody of irrelevant specificity was included in the assay as a negative control.

human CD19 antigen [3] = target: T1, human CD19 antigen; experiment: cell-based or functional assay
human CD19 antigen [4] = target: T1, human CD19 antigen; experiment: cell based ECL binding assay (Meso Scale Discovery; Lu et al. 2006) on 300B4 cells expressing recombinant human CD19, Fab supernatant, signal in Units
Method: (§2) CDR specific phage display libraries were generated as described above. Libraries were screened by testing a large number of phage clones (approximately 400 clones per library) in single point cell based binding assay (Lu et al., J. Immunol. Methods 314:74-79 (2006)). Reagents and disposables were purchased from Meso Scale Discovery; assays were performed following the manufacturer's instructions.

human CD19 antigen [5] = target: T1, human CD19 antigen; experiment: cell based ECL binding assay (Meso Scale Discovery; Lu et al. 2006) on 300B4 cells as titled on the sheet, Fab supernatant, signal in Units
Method: as §2
Combinatorial phage display libraries were prepared as described above. Individual Fab clones from the combinatorial library were tested for binding to 300B4 and Raji cells (Lu et al., J. Immunol. Methods 314:74-79 (2006)).

EC50 (read off the curve) (human CD19 antigen [1]): ~80 ng/mL | EC50 (read off the curve) (human CD19 antigen [2]): ~200 ng/mL
B1: Chimeric HB12B antibody comprising HB12B VH and HB12B VK (antibody, human IgG1, V domains shown)
VH: QVQLQQSGPELVKPGASVKISCKASGYAFSSSWMNWVIQRPGQGLEWIGRIYPGDGDTNYNGKFKGKATLTADKSSSTAYMQLSSLTSVDSAVYFCARSGFITTVLDFDYWGHGTTLTVSS
VL: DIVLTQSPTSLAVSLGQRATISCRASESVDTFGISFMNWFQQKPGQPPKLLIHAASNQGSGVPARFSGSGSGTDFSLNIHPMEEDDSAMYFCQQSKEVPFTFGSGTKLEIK
notes: also called chHB12B; chimeric anti-CD19 antibody

ADCC EC50, Daudi target cells (human CD19 antigen [3]): 0.0031 ng/mL | ADCC EC50, Farage target cells (human CD19 antigen [3]): 0.0141 ng/mL | ADCC EC50, Karpas-422 target cells (human CD19 antigen [3]): 0.0181 ng/mL | ADCC EC50, Karpas-1106P target cells (human CD19 antigen [3]): 0.009 ng/mL | ADCC EC50, Nalm-6 target cells (human CD19 antigen [3]): 0.0199 ng/mL | ADCC EC50, Namalwa target cells (human CD19 antigen [3]): 0.012 ng/mL | ADCC EC50, Oci-LY19 target cells (human CD19 antigen [3]): 0.0163 ng/mL | ADCC EC50, RL target cells (human CD19 antigen [3]): 0.0073 ng/mL | ADCC EC50, Raji target cells (human CD19 antigen [3]): 0.003 ng/mL | ADCC EC50, Toledo target cells (human CD19 antigen [3]): 0.0075 ng/mL
B2: afucosylated 16C4 anti-CD19 antibody (antibody, human IgG1, V domains shown)
VH: EVQLVESGGGLVQPGGSLRLSCAASGFTFSSSWMNWVRQAPGKGLEWVGRIYPGDGDTNYNVKFKGRFTISRDDSKNSLYLQMNSLKTEDTAVYYCARSGFITTVRDFDYWGQGTLVTVSS
VL: EIVLTQSPDFQSVTPKEKVTITCRASESVDTFGISFMNWFQQKPDQSPKLLIHEASNQGSGVPSRFSGSGSGTDFTLTINSLEAEDAATYYCQQSKEVPFTFGGGTKVEIK
modifications: afucosylated Fc N-glycan (as for 3649-aFuc)
% max. cell kill at 10 ug/ml, DB target cells (human CD19 antigen [3]): 34% | % max. cell kill at 10 ug/ml, Daudi target cells (human CD19 antigen [3]): 50% | % max. cell kill at 10 ug/ml, Farage target cells (human CD19 antigen [3]): 48% | % max. cell kill at 10 ug/ml, Granta-519 target cells (human CD19 antigen [3]): 6% | % max. cell kill at 10 ug/ml, Karpas-422 target cells (human CD19 antigen [3]): 62% | % max. cell kill at 10 ug/ml, Karpas-1106P target cells (human CD19 antigen [3]): 59% | % max. cell kill at 10 ug/ml, Nalm-6 target cells (human CD19 antigen [3]): 35% | % max. cell kill at 10 ug/ml, Namalwa target cells (human CD19 antigen [3]): 23% | % max. cell kill at 10 ug/ml, Oci-LY19 target cells (human CD19 antigen [3]): 47% | % max. cell kill at 10 ug/ml, RL target cells (human CD19 antigen [3]): 45% | % max. cell kill at 10 ug/ml, Raji target cells (human CD19 antigen [3]): 43% | % max. cell kill at 10 ug/ml, Toledo target cells (human CD19 antigen [3]): 48%

EC50 (read off the curve) (human CD19 antigen [4]): ~1000 ng/mL
B3: 64D4 affinity matured Fab (16C4 variant, VH CDR2 Pro > Leu at 52A) (Fab, V domains shown)
VH: EVQLVESGGGLVQPGGSLRLSCAASGFTFSSSWMNWVRQAPGKGLEWVGRIYLGDGDTNYNVKFKGRFTISRDDSKNSLYLQMNSLKTEDTAVYYCARSGFITTVRDFDYWGQGTLVTVSS
VL: EIVLTQSPDFQSVTPKEKVTITCRASESVDTFGISFMNWFQQKPDQSPKLLIHEASNQGSGVPSRFSGSGSGTDFTLTINSLEAEDAATYYCQQSKEVPFTFGGGTKVEIK
notes: Fab with human γ1 CH1 and human kappa constant domain; position is Kabat

EC50 (read off the curve) (human CD19 antigen [1]): ~70 ng/mL | EC50 (read off the curve) (human CD19 antigen [2]): ~200 ng/mL
B4: humanized anti-CD19 antibody #1 comprising HB12B-(3-72/JH4) VH and HB12B-364987 VK (antibody, human IgG1, V domains shown)
VH: EVQLVESGGGLVQPGGSLRLSCAASGFTFSSSWMNWVRQAPGKGLEWVGRIYPGDGDTNYNGKFKGRFTISRDDSKNSLYLQMNSLKTEDTAVYYCARSGFITTVLDFDYWGQGTLVTVSS
VL: EIVLTQSPDFQSVTPKEKVTITCRASESVDTFGISFMNWFQQKPDQSPKLLIHAASNQGSGVPSRFSGSGSGTDFTLTINSLEAEDAATYFCQQSKEVPFTFGGGTKVEIK
notes: Human IgG1/kappa constant regions; also called humanized HB12B antibody #1

EC50 (read off the curve) (human CD19 antigen [5]): ~500 ng/mL
B5: 6C11 affinity matured Fab (Fab, V domains shown)
VH: EVQLVESGGGLVQPGGSLRLSCAASGFTFSSVWMNWVRQAPGKGLEWVGRIYLGDGDTNYNVKFKGRFTISRDDSKNSLYLQMNSLKTEDTAVYYCARSGFITTVRDFDYWGQGTLVTVSS
VL: EIVLTQSPDFQSVTPKEKVTITCRASESVDTFGISFMNWFQQKPDQSPKLLIHEASNPGSGVPSRFSGSGSGTDFTLTINSLEAEDAATYYCQQTKRVPFTFGGGTKVEIK
notes: Fab
